Data from PMC8803112.

Legend:
[1] = biological target: C3 complement protein (human)
[2] = biological target: C1r complement protein (human)
[3] = biological target: C1s complement protein (human)

## complement evasion factor (CEF), recombinant Spy0136 (from UniProt Q9A1R6 28-221) (natural protein)
[1]
  C3b deposition on S. pyogenes opsonised with human serum with 0.5 µM rCEF, flow cytometry: 30 % decrease
[2]
  Wieslab complement assay, classical pathway activity (C5b-9 formation) of serum pre-incubated with 2 µM rCEF: < 10 % activity
[3]
  Wieslab complement assay, classical pathway activity (C5b-9 formation) of serum pre-incubated with 2 µM rCEF: < 10 % activity
